Laboratory results published in paper doi:10.1101/2019.12.30.891283 (bioRxiv, 2019).

Molecular target: the molecule itself
Assay: native MS

B1: enoyl-ACP reductase (FabI) from E. coli (enzyme)
chain: MGFLSGKRILVTGVASKLSIAYGIAQAMHREGAELAFTYQNDKLKGRVEEFAAQLGSDIVLQCDVAEDASIDTMFAELGKVWPKFDGFVHSIGFAPGDQLDGDYVNAVTREGFKIAHDISSYSFVAMAKACRSMLNPGSALLTLSYLGAERAIPNYNVMGLAKASLEANVRYMANAMGPEGVRVNAISAGPIRTLAASGIKDFRKMLAHCEAVTPIRRTVTIEDVGNSAAFLCSDLSAGISGEVVHVDGGFSIAAMNELELK
stoichiometry N: 4
